Assay [1] concerns the target T1, Nanog transcription factor (NANOG), SPR ligand (UniProt Q9H9S0 1-305, limits assumed).
T1 construct: the NANOG preparation is not described
Briefly: SPR, peptide as analyte, NANOG as ligand.

Assay [2] addresses T2, Focal Adhesion Kinase (FAK), SPR ligand (UniProt Q05397 1-1052, limits assumed).
T2 construct: the FAK preparation is not described
Description: SPR, peptide as analyte, FAK as ligand. A general note: In SPR one partner is held on a chip, and binding of the other changes the refractive index at the surface.

Assay [3] has as its target Connexin 26 (Cx26), endogenous or overexpressed in breast cell lysates (UniProt P29033 1-226). Description: reciprocal co-immunoprecipitation (anti-Cx26, anti-FAK) from bulk MCF7 and MCF10A lysates, western blot; non-immune IgG as control. Background: In western blotting, separated proteins are transferred to a membrane and probed.

The text below walks through data of US20190352367A1 (CLEVELAND CLINIC FOUNDATION, published 2019).

T1 sequence (Q9H9S0 whole entry): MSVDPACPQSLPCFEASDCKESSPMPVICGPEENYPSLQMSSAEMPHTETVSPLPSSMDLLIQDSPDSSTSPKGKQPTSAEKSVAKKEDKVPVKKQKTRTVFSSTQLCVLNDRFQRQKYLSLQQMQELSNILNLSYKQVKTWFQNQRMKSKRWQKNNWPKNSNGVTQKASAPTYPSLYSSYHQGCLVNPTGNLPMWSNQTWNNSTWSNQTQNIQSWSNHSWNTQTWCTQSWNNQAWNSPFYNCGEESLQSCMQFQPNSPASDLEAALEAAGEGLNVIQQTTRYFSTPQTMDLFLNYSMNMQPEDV

By Kd is commonly meant the free concentration of one partner at which half of the binding sites on the other are occupied at equilibrium, for simple one-to-one binding. A higher Kd goes with a looser complex. Turning to RYCSGKSKKPV (also called cytoplasmic tail of Cx26) [Cx26 blocking peptide 5 (C-terminus)], the Kd in assay [1] is 0.17 µM; in assay [2] it was 14.9 µM.

B1: Focal adhesion kinase (FAK), endogenous in breast cell lysates (enzyme)
chain: AAAYLDPNLNHTPNSSTKTHLGTGMERSPGAMERVLKVFHYFESNSEPTTWASIIRHGDATDVRGIIQKIVDSHKVKHVACYGFRLSHLRSEEVHWLHVDMGVSSVREKYELAHPPEEWKYELRIRYLPKGFLNQFTEDKPTLNFFYQQVKSDYMLEIADQVDQEIALKLGCLEIRRSYWEMRGNALEKKSNYEVLEKDVGLKRFFPKSLLDSVKAKTLRKLIQQTFRQFANLNREESILKFFEILSPVYRFDKECFKCALGSSWIISVELAIGPEEGISYLTDKGCNPTHLADFTQVQTIQYSNSEDKDRKGMLQLKIAGAPEPLTVTAPSLTIAENMADLIDGYCRLVNGTSQSFIIRPQKEGERALPSIPKLANSEKQGMRTHAVSVSETDDYAEIIDEEDTYTMPSTRDYEIQRERIELGRCIGEGQFGDVHQGIYMSPENPALAVAIKTCKNCTSDSVREKFLQEALTMRQFDHPHIVKLIGVITENPVWIIMELCTLGELRSFLQVRKYSLDLASLILYAYQLSTALAYLESKRFVHRDIAARNVLVSSNDCVKLGDFGLSRYMEDSTYYKASKGKLPIKWMAPESINFRRFTSASDVWMFGVCMWEILMHGVKPFQGVKNNDVIGRIENGERLPMPPNCPPTLYSLMTKCWAYDPSRRPRFTELKAQLSTILEEEKAQQEERMRMESRRQATVSWDSGGSDEAPPKPSRPGYPSPRSSEGFYPSPQHMVQTNHYQVSGYPGSHGITAMAGSIYPGQASLLDQTDSWNHRPQEIAMWQPNVEDSTVLDLRGIGQVLPTHLMEERLIRQQQEMEEDQRWLEKEERFLKPDVRLSRGSIDREDGSLQGPIGNQHIYQPVGKPDPAAPPKKPPRPGAPGHLGSLASLSSPADSYNEGVKLQPQEISPPPTANLDRSNDKVYENVTGLVKAVIEMSSKIQPAPPEEYVPMVKEVGLALRTLLATVDETIPLLPASTHREIEMAQKLLNSDLGELINKMKLAQQYVMTSLQQEYKKQMLTAAHALAVDAKNLLDVIDQARLKMLGQTRPH
notes: Protein from cell lysates in co-immunoprecipitation; also called total FAK
For the molecule B1, the binding result in assay [3] was “binds”.
